The text below walks through data of patent US20130189284A1 (TECHNION RESEARCH AND DEVELOPMENT FOUNDATION, published 2013).

In assay [1] the target is DR4/HA307-319 complex presented on cells (human, UniProt P01903 26-254; P01911 30-266). As to the kind of experiment: flow cytometry on peptide-loaded Preiss cells. A general note: Flow cytometry measures light scatter and fluorescence of single cells or particles in a stream.
For assay [2], the target named is HA307-319 peptide ([…]), alone. The experiment in a line: ELISA, immobilized peptide. For orientation: ELISA stands for enzyme-linked immunosorbent assay.

B1: G3H8 Fab (Anti HLA-DR4/GAD555-567 Fab) (Fab, V domains shown)
VH: QVQLVQSGAEVKKPGASVKVSCKASGYTFTTYGISWVRQAPGQGLEWMGWISAYNGHTNYAQMLQGRVTMTTDTSTSTAYMELRGLRSDDTAVYYCAREAYASYGSGSYWTDYWGQGTLVTVSS
VL: ETTLTQSPATLSVSPGERVTLSCRASQSVGSNLAWYQQKFGQAPRLLIYDASTRATGIPARFSGSGSGTEFTLTISRLEPEDFAVYYCHQYGSSPRTFGQGTKVDIKR
notes: also called Fab G3H8; G3H8 TCRL Fab
Take B1: the binding result in assay [1] is on record as “no binding (tested: 1-5 µg of specific Fab per 10^6 cells)”; in assay [2] it was “no binding (tested: 5 µg/ml soluble purified Fab)”.

B2: G1H12 Fab (Anti HLA-DR4/GAD555-567 Fab) (Fab, V domains shown)
VH: QVQLVQSGAEVKKPGASVKVSCKASGYTFTSYGISWVRQAPGQGLEWMGGIIPIFGTANYAQKFQGRVTITADKSTSTAYMELSSLRSEDTAVYYCARDPQSYYYDSSGFDYWGQGTLVTVSS
VL: QSVLTQPPSVSAAPGQKVTISCSGSSSNIGNNYVSWYQQLPGTAPKLLIYDNNKRPSGIPDRFSGSKSGTSATLGITGLQTGDEADYYCGTWDSSLSVWVFGGGTKLTVLG
Regarding B2, the binding result in assay [1] is given as “no binding (tested: 1-5 µg of specific Fab per 10^6 cells)”; in assay [2], “no binding (tested: 5 µg/ml soluble purified Fab)”.
